Tests used:
AORAa = molecular target: T1, AORAa (Aromatoleum aromaticum, UniProt Q5P143); assay: flavin fluorescence of supernatant of heat-denatured enzyme, phosphodiesterase treatment; type: binding; conditions: co-purified cofactor; site AorC (predicted)
T1 construct: gene aorB; native heterohexamer α2β2γ2, ca. 280 kDa (subunits 66, 46, 17 kDa), purified from phenylalanine-grown Δpdh cells, no tag; with Iron-sulfur protein, aldehyde oxidoreductase small subunit AorA

[1] = system: c1ccc(C[n+]2ccc(-c3cc[n+](Cc4ccccc4)cc3)cc2)cc1; assay: purified protein; conditions: artificial electron acceptor, phenylacetaldehyde as co-substrate, 100 mM Tris-HCl pH 8.0, 28°C, probably reacts at an Fe-S cluster
purified protein [2] = substrate: O=CCc1ccccc1; assay: purified protein; conditions: electron acceptor benzyl viologen, 100 mM Tris-HCl pH 8.0, 28°C, site AorB (W-cofactor, predicted)
purified protein [3] = substrate: O=Cc1ccccc1; assay: purified protein; conditions: electron acceptor benzyl viologen, 100 mM Tris-HCl pH 8.0, 28°C, site AorB (W-cofactor, predicted)
purified protein [4] = substrate: CC=O; assay: purified protein; conditions: electron acceptor benzyl viologen, 100 mM Tris-HCl pH 8.0, 28°C, site AorB (W-cofactor, predicted)
purified protein [5] = substrate: NC(=O)c1ccc[n+]([C@@H]2O[C@H](COP(=O)(O)OP(=O)(O)OC[C@H]3O[C@@H](n4cnc5c(N)ncnc54)[C@H](O)[C@@H]3O)[C@@H](O)[C@H]2O)c1; assay: purified protein; type: biochemical, Aromatoleum aromaticum; conditions: electron acceptor, phenylacetaldehyde as co-substrate, 100 mM Tris-HCl pH 8.0, 28°C, site AorC (FAD, predicted)
[6] = molecular target: T2, AorB, large W-cofactor binding subunit of aldehyde oxidoreductase AORAa from Aromatoleum aromaticum EbN1 (Aromatoleum aromaticum EbN1, UniProt Q5P143 1-616); assay: co-purification by enzyme activity (DEAE-sepharose, hydroxyapatite, Superdex 200 gel filtration); endogenous enzyme purified from cell extract under anoxic conditions, followed by AOR activity; subunits separated by SDS-PAGE and identified by MALDI-TOF of tryptic fragments; conditions: partners not purified
T2 construct: AorB, large subunit (66 kDa on SDS-PAGE) of the tungsten-containing aldehyde oxidoreductase of Aromatoleum aromaticum EbN1; also called large subunit; aorB gene product; source: purified from A. aromaticum EbN1 strain SR7Δpdh as part of AORAa (DEAE-sepharose, hydroxyapatite, Superdex 200)
T2 sequence (looked up): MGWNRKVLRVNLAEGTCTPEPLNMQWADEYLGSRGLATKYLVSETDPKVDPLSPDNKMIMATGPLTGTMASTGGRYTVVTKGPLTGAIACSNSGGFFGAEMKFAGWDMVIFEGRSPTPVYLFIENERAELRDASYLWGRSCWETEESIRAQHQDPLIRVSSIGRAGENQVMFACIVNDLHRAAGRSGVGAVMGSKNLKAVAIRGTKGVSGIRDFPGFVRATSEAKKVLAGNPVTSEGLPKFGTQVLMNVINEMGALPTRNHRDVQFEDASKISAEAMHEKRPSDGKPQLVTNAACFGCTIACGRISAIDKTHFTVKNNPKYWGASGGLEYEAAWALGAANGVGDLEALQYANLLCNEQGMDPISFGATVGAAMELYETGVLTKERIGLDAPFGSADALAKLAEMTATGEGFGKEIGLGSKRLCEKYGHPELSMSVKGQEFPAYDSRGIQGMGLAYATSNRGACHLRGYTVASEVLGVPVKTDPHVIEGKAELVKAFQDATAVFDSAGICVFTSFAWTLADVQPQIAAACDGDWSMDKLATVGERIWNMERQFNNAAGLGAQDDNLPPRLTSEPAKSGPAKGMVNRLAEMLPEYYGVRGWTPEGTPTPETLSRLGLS

Cc1cc2nc3c(=O)[nH]c(=O)nc-3n(C[C@H](O)[C@H](O)[C@H](O)COP(=O)(O)OP(=O)(O)OC[C@H]3O[C@@H](n4cnc5c(N)ncnc54)[C@H](O)[C@@H]3O)c2cc1C [FAD]
flavin fluorescence of supernatant of heat-denatured enzyme, phosphodiesterase t (AORAa): The presence of FAD in AORAa was confirmed by fluorescence spectroscopy

AORAa (Aromatoleum aromaticum EbN1)
Km [1]: 23 µM | Vmax [1]: 21.2 µmol/min/mg | kcat [1]: 91 s⁻¹ | kcat/Km [1]: 3.96e+06 M⁻¹ s⁻¹

B1: AORAa (Aromatoleum aromaticum EbN1) (protein)
chain: MGWNRKVLRVNLAEGTCTPEPLNMQWADEYLGSRGLATKYLVSETDPKVDPLSPDNKMIMATGPLTGTMASTGGRYTVVTKGPLTGAIACSNSGGFFGAEMKFAGWDMVIFEGRSPTPVYLFIENERAELRDASYLWGRSCWETEESIRAQHQDPLIRVSSIGRAGENQVMFACIVNDLHRAAGRSGVGAVMGSKNLKAVAIRGTKGVSGIRDFPGFVRATSEAKKVLAGNPVTSEGLPKFGTQVLMNVINEMGALPTRNHRDVQFEDASKISAEAMHEKRPSDGKPQLVTNAACFGCTIACGRISAIDKTHFTVKNNPKYWGASGGLEYEAAWALGAANGVGDLEALQYANLLCNEQGMDPISFGATVGAAMELYETGVLTKERIGLDAPFGSADALAKLAEMTATGEGFGKEIGLGSKRLCEKYGHPELSMSVKGQEFPAYDSRGIQGMGLAYATSNRGACHLRGYTVASEVLGVPVKTDPHVIEGKAELVKAFQDATAVFDSAGICVFTSFAWTLADVQPQIAAACDGDWSMDKLATVGERIWNMERQFNNAAGLGAQDDNLPPRLTSEPAKSGPAKGMVNRLAEMLPEYYGVRGWTPEGTPTPETLSRLGLS
Km (purified protein [2]): 82 µM | Vmax (purified protein [2]): 18.9 µmol/min/mg | kcat (purified protein [2]): 81 s⁻¹ | kcat/Km (purified protein [2]): 990000 M⁻¹ s⁻¹ | Km (purified protein [3]): 67 µM | Vmax (purified protein [3]): 21.4 µmol/min/mg | kcat (purified protein [3]): 92 s⁻¹ | kcat/Km (purified protein [3]): 1.38e+06 M⁻¹ s⁻¹ | Km (purified protein [4]): 141 µM | Vmax (purified protein [4]): 23.8 µmol/min/mg | kcat (purified protein [4]): 103 s⁻¹ | kcat/Km (purified protein [4]): 730000 M⁻¹ s⁻¹ | Km (purified protein [5]): 63 µM | Vmax (purified protein [5]): 12.5 µmol/min/mg | kcat (purified protein [5]): 54 s⁻¹ | kcat/Km (purified protein [5]): 860000 M⁻¹ s⁻¹

B2: AorA, small subunit of aldehyde oxidoreductase AORAa from Aromatoleum aromaticum EbN1 (natural protein, UniProt Q5P144 1-158, looked up)
chain: MWKSLHIDPAKCTGCLQCEMACSYEHTGVINPSKSRIKVFSFEHEGRKVPYTCTQCTEAWCLHSCPVDAIRLDLTTGAKMVFEDTCVGCKVCTIACPFGTINYNQDTGKVQKCDLCEGDPACAKACPTAAITYIDADWTGLARMQAWAAKANTPASAA
notes: AorA, small subunit (17 kDa on SDS-PAGE) of the tungsten-containing aldehyde oxidoreductase of Aromatoleum aromaticum EbN1; predicted to contain four [Fe4S4] clusters; also called electron transfer subunit; aorA gene product; source: purified from A. aromaticum EbN1 strain SR7Δpdh as part of AORAa (DEAE-sepharose, hydroxyapatite, Superdex 200)
binding result [6]: binds

B3: AorC, medium FAD-containing subunit of aldehyde oxidoreductase AORAa from Aromatoleum aromaticum EbN1 (natural protein, UniProt Q5P142 1-424, looked up)
chain: MKHVILGNGPAGVIAAETLRRAAPTDDILLFGSEDAPPYSRMAIPYLLEGNIDESGTWLRKSPGHFDRLRIHEMRGRAVSLDSERRRILFDDGHFESWDRLLIATGSHPVRPPIPGIDLPEVQTCWTLEDARAIARFATPGARVLQLGAGFIGCIIMEALAARGVELTVVEMGDRMVPRMMTPTAGGMIRKWVEDQGVRVVTNAGVSRIDCRASNDAPLDVTLSTGEVVVADLVIVAAGVAPNIAFLEATPVHVAKGVLVDDRLQTSVPGIFAAGDVAEAPDLFTGAHLVAAIQPNAADQARVAALNMAGHEARLKGVLAINVLDTLGLISSSFGQWWGEERERGGAGVEHVDEAAYRYLSLQFKDDVLIGATSIGLTEHVGALRGLIHGRVRLGEWKERLLHSPLQFVDAYIARSQQPMALVR
notes: AorC, medium-sized subunit (46 kDa on SDS-PAGE) of the tungsten-containing aldehyde oxidoreductase of Aromatoleum aromaticum EbN1; predicted FAD-containing; also called medium subunit; medium-sized subunit; source: purified from A. aromaticum EbN1 strain SR7Δpdh as part of AORAa (DEAE-sepharose, hydroxyapatite, Superdex 200)
binding result [6]: binds

Reference: publication PMC6365974, “Characterization of an Aldehyde Oxidoreductase From the Mesophilic Bacterium Aromatoleum aromaticum EbN1, a Member of a New Subfamily of Tungsten-Containing Enzymes” (Frontiers in Microbiology, 2019)
